13 molecules from patent US20130142788A1 (published 2013) can be followed below.

Test [1] addresses T1, recombinant mature dimeric myostatin (human and mouse (mature sequences 100% …, UniProt O08689 268-376)).
T1 construct: also called GDF-8; mature myostatin
T1 sequence: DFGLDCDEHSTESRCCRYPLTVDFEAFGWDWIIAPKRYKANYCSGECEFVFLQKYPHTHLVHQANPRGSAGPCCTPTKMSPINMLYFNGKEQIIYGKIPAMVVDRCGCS
In words: myostatin capture ELISA: polyclonal anti-myostatin coated, myostatin 1 ug/ml captured, antibody titrated, anti-human kappa-HRP, OPD, A490. The method, then:
The eleven affinity purified CDRH3 variants were also analyzed for binding activity in the myostatin capture ELISA.
(§1) A 96-well ELISA plate was coated at 4° C. overnight with 2.5 μg/ml polyclonal Antibody to Myostatin (R&D Systems AF788). This plate was then washed 3-times in wash buffer (PBS, 0.1% Tween-20) and blocked for 1 hour at room temperature with block solution (PBS, 0.1% Tween-20+1% bovine serum albumin [BSA]). Then, myostatin was added at 1 μg/ml in block buffer during 1 hour followed by 3-times in wash buffer. Antibodies were then titrated out to a suitable concentration range (approximately 10 to 0.01 μg/ml), added to the plate and incubated for 1 hour at room temperature. The plate was then washed 3-times in wash buffer. An anti-human kappa light chain HRP-conjugated antibody (Sigma A7164, used according to the manufacturer's instructions) was used to detect binding of humanized or chimeric antibodies, such as 10B3 chimera (HcLc) or H0L0. The plate was then washed 3-times in wash buffer and developed with an OPD substrate (according to the manufacturer's instructions) and read at 490 nm on a plate reader.
For orientation: An ELISA detects its analyte on a solid surface through an enzyme-linked reagent.

Test [2] addresses T1, recombinant mature dimeric myostatin. Nature of the test: cell-based or functional assay.
Test [3] has the same target. In words: ActRIIb neutralisation ELISA: inhibition of 2 nM biotinylated myostatin binding to coated ActRIIb. How it is done: Recombinant soluble ActRIIb (R&D Systems 339-RBB) was coated in wells of an ELISA plate at 1 μg/ml in carbonate buffer overnight at 4° C. Plates were blocked with PBS containing 0.1% tween 20 and 0.1% BSA and washed following standard ELISA protocols. In parallel, 2 nM biotinylated myostatin (in-house reagent, described above) was pre-incubated with a dilution series of the antibodies of Tables 21 and 22 for 30 minutes at 37° C. The biotinylated myostatin:antibody reactions were then added (50 μl/well) to the ActRIIb coated plate for 1 hour at 37° C. Standard wash procedures were followed prior to addition of 50 μl per well of a 1:200 diluted streptavidin-HRP conjugate (R&D Systems. #890803) followed by a further 37° C. incubation for 1 hour. Plates were again washed and assayed at absorbance 490 nm following substrate (R&D Systems, #DY999) and acid stop solution treatment.

Test [4] shares this target. In words: myostatin competition ELISA, biotinylated myostatin on streptavidin, competitor 10B3. The method, then:
The protocol set out in 5.7 was used but the plates were initially coated at 4° C. overnight with 5 μg/ml of streptavidin. Biotinylated myostatin was added at 0.3 μg/ml block buffer during 1 hour followed by 3-times in wash buffer. 10B3 (final concentration of 0.2 μg/ml) was added into each well and mixed with antibodies titrated out to a suitable concentration range (approximately 10 to 0.01 μg/ml). An anti-mouse HRP-conjugated antibody (DAKO P0260, used according to the manufacturer's instructions) was used to detect binding of the 10B3 antibody.

Test [5] has the same target. In words: myostatin competition ELISA, polyclonal Ab capture of myostatin, competitor 10B3. How it is done: as §1
The protocol set out in 5.7 was used with the addition of 10B3 (final concentration of […]) to each well and mixed with the antibodies titrated out to a suitable concentration range (approximately 10 to 0.01 μg/ml). An anti-mouse HRP-conjugated antibody (DAKO P0260, used according to the manufacturer's instructions) was used to detect binding of the 10B3 antibody.

Test [6] shares this target. Nature of the test: cell-based or functional assay. The source holds these as a separate data set.
Test [7] shares this target. In words: myostatin competition ELISA, direct capture of myostatin, competitor 10B3. The method, then:
as §1
The protocol set out in 5.7 was used but the plates were initially coated at 4° C. overnight with 0.2 μg/ml of myostatin (recombinant in-house, see 1.1 above). 10B3 (final concentration of 0.3 μg/ml) was added into each well and mixed with antibodies titrated out to a suitable concentration range (approximately 10 to 0.01 μg/ml). An anti-mouse HRP-conjugated antibody (DAKO P0260, used according to the manufacturer's instructions) was used to detect binding of the 10B3 antibody.

B1: H2L2-C91S_F100G_N (antibody, V domains shown)
VH: QVQLVQSGAEVKKPGASVKVSCKASGYSFTGYFMHWVRQAPGQGLEWMGNIYPYNGVSNYNQRFKARVTMTTDTSTSTAYMELRSLRSDDTAVYYCARRYYYGTGPADWYNDVWGQGTLVTVSS
VL: DIQMTQSPSSLSASVGDRVTITCKASQDINSYLSWFQQKPGKAPKSLIYRANRLVDGVPSKFSGSGSGTDYTLTISSLQPEDFATYYCLQSDEFPLTFGQGTKLEIKR
As to B1, in test [1], the binding result is “binds”.

B2: H2L2-C91S_G99S (antibody, V domains shown)
VH: QVQLVQSGAEVKKPGASVKVSCKASGYSFTGYFMHWVRQAPGQGLEWMGNIYPYNGVSNYNQRFKARVTMTTDTSTSTAYMELRSLRSDDTAVYYCARRYYYSTGPADWYFDVWGQGTLVTVSS
VL: DIQMTQSPSSLSASVGDRVTITCKASQDINSYLSWFQQKPGKAPKSLIYRANRLVDGVPSKFSGSGSGTDYTLTISSLQPEDFATYYCLQSDEFPLTFGQGTKLEIKR
Take B2: the binding result in test [1] is “binds”.

B3: H4L5 (antibody, IgG1, V domains shown)
VH: QVQLVQSGAEVKKPGASVKVSCKASGYSFTGYFMHWVRQAPGQGLEWMGNIYPYNGVSNYNQRFKARVTMTVDKSTSTAYMELRSLRSDDTAVYYCARRYYYGTGPADWYYDVWGQGTLVTVSS
VL: DIQMTQSPSSLSASVGDRVTITCKASQDINSYLSWFQQKPGKAPKTLIYRANRLVDGVPSKFSGSGSGTDYTLTISSLQPEDFATYYCLQSDEFPLTFGQGTKLEIKR
notes: Humanised IgG1/kappa
B3: the “IC50, myostatin responsive reporter gene neutralisation assay (A204)” value (“IC50 … (A204)” for short) in test [2] was found to be 6.5 nM. The IC50 in test [3] was found to be 0.336 nM.

B4: HoLo (antibody, V domains shown)
VH: QVQLVQSGAEVKKPGASVKVSCKASGYTFTGYFMHWVRQAPGQGLEWMGNIYPYNGVSNYNQRFKARVTMTTDTSTSTAYMELRSLRSDDTAVYYCARRYYYGTGPADWYFDVWGQGTLVTVSS
VL: DIQMTQSPSSLSASVGDRVTITCKASQDINSYLSWFQQKPGKAPKSLIYRANRLVDGVPSKFSGSGSGTDFTLTISSLQPEDFATYYCLQCDEFPLTFGQGTKLEIKR
notes: also called H0L0; copies: 2 + 2
Consider B4, for which the binding result in test [1] was “binds”.

B5: H2L2-C91S_W100E_F (antibody, V domains shown)
VH: QVQLVQSGAEVKKPGASVKVSCKASGYSFTGYFMHWVRQAPGQGLEWMGNIYPYNGVSNYNQRFKARVTMTTDTSTSTAYMELRSLRSDDTAVYYCARRYYYGTGPADFYFDVWGQGTLVTVSS
VL: DIQMTQSPSSLSASVGDRVTITCKASQDINSYLSWFQQKPGKAPKSLIYRANRLVDGVPSKFSGSGSGTDYTLTISSLQPEDFATYYCLQSDEFPLTFGQGTKLEIKR
Take B5: the binding result in test [1] was “binds”.

B6: H2L2-C91S_Y96L (antibody, V domains shown)
VH: QVQLVQSGAEVKKPGASVKVSCKASGYSFTGYFMHWVRQAPGQGLEWMGNIYPYNGVSNYNQRFKARVTMTTDTSTSTAYMELRSLRSDDTAVYYCARRLYYGTGPADWYFDVWGQGTLVTVSS
VL: DIQMTQSPSSLSASVGDRVTITCKASQDINSYLSWFQQKPGKAPKSLIYRANRLVDGVPSKFSGSGSGTDYTLTISSLQPEDFATYYCLQSDEFPLTFGQGTKLEIKR
Consider B6, for which the “rank among the five most potent, top (1) to bottom (5)” value (“rank among the five most potent, top” below) in test [4] amounted to 5 rank.

B7: H4L6 (antibody, IgG1, V domains shown)
VH: QVQLVQSGAEVKKPGASVKVSCKASGYSFTGYFMHWVRQAPGQGLEWMGNIYPYNGVSNYNQRFKARVTMTVDKSTSTAYMELRSLRSDDTAVYYCARRYYYGTGPADWYYDVWGQGTLVTVSS
VL: DIQMTQSPSSLSASVGDRVTITCKASQDINSYLSWFQQKPGKAPKTLIYRANRLVDGVPSKFSGSGSGQDYTLTISSLQPEDFATYYCLQSDEFPLTFGQGTKLEIKR
notes: Humanised IgG1/kappa
Take B7: the “IC50 … (A204)” value in test [2] stood at 6.9 nM. The IC50 in test [3] was determined as 0.273 nM.

B8: H9L5 (antibody, IgG1, V domains shown)
VH: QVQLVQSGAEVKKPGASVKISCKASGYSFTGYFMHWVRQAPGQGLEWIGNIYPYNSVSNYNQRFKAKATLTVDKSTSTAYMELRSLRSDDTAVYYCARRYYYGTGPADWYYDVWGQGTLVTVSS
VL: DIQMTQSPSSLSASVGDRVTITCKASQDINSYLSWFQQKPGKAPKTLIYRANRLVDGVPSKFSGSGSGTDYTLTISSLQPEDFATYYCLQSDEFPLTFGQGTKLEIKR
notes: Humanised IgG1/kappa
In the case of B8, the “IC50 … (A204)” value in test [2] was 4 nM. Also, the IC50 in test [3] was determined as 0.14 nM.

B9: H2L2-C91S_G99D (antibody, V domains shown)
VH: QVQLVQSGAEVKKPGASVKVSCKASGYSFTGYFMHWVRQAPGQGLEWMGNIYPYNGVSNYNQRFKARVTMTTDTSTSTAYMELRSLRSDDTAVYYCARRYYYDTGPADWYFDVWGQGTLVTVSS
VL: DIQMTQSPSSLSASVGDRVTITCKASQDINSYLSWFQQKPGKAPKSLIYRANRLVDGVPSKFSGSGSGTDYTLTISSLQPEDFATYYCLQSDEFPLTFGQGTKLEIKR
On to B9, for which the “rank among the five most potent, top” value in test [5] turned out to be 5 rank.

B10: H7L5 (antibody, IgG1, V domains shown)
VH: QVQLVQSGAEVKKPGASVKVSCKASGYSFTGYFMHWVRQAPGQGLEWMGNIYPYNSVSNYNQRFKARVTMTVDKSTSTAYMELRSLRSDDTAVYYCARRYYYGTGPADWYYDVWGQGTLVTVSS
VL: DIQMTQSPSSLSASVGDRVTITCKASQDINSYLSWFQQKPGKAPKTLIYRANRLVDGVPSKFSGSGSGTDYTLTISSLQPEDFATYYCLQSDEFPLTFGQGTKLEIKR
notes: Humanised IgG1/kappa
On to B10, for which, in test [2], the “IC50 … (A204)” value was 6.3 nM. Further, the IC50 in test [3] turned out to be 0.028 nM.

B11: H2L2-C91S_P100B_I (antibody, V domains shown)
VH: QVQLVQSGAEVKKPGASVKVSCKASGYSFTGYFMHWVRQAPGQGLEWMGNIYPYNGVSNYNQRFKARVTMTTDTSTSTAYMELRSLRSDDTAVYYCARRYYYGTGIADWYFDVWGQGTLVTVSS
VL: DIQMTQSPSSLSASVGDRVTITCKASQDINSYLSWFQQKPGKAPKSLIYRANRLVDGVPSKFSGSGSGTDYTLTISSLQPEDFATYYCLQSDEFPLTFGQGTKLEIKR
In the case of B11, the “Mean IC50, A204 in vitro activity assay” value in test [6] was 4.53 nM. The “rank among the five most potent, top” value in test [4] is 3 rank; in test [7], 5 rank.

B12: H5L5 (antibody, IgG1, V domains shown)
VH: QVQLVQSGAEVKKPGASVKVSCKASGYSFTGYFMHWVRQAPGQGLEWIGNIYPYNGVSNYNQRFKARATLTVDKSTSTAYMELRSLRSDDTAVYYCARRYYYGTGPADWYYDVWGQGTLVTVSS
VL: DIQMTQSPSSLSASVGDRVTITCKASQDINSYLSWFQQKPGKAPKTLIYRANRLVDGVPSKFSGSGSGTDYTLTISSLQPEDFATYYCLQSDEFPLTFGQGTKLEIKR
notes: Humanised IgG1/kappa
As for B12, the “IC50 … (A204)” value in test [2] was 6.1 nM. The IC50 in test [3] was found to be 0.149 nM.

B13: H2L2-C91S_G100A_K (antibody, V domains shown)
VH: QVQLVQSGAEVKKPGASVKVSCKASGYSFTGYFMHWVRQAPGQGLEWMGNIYPYNGVSNYNQRFKARVTMTTDTSTSTAYMELRSLRSDDTAVYYCARRYYYGTKPADWYFDVWGQGTLVTVSS
VL: DIQMTQSPSSLSASVGDRVTITCKASQDINSYLSWFQQKPGKAPKSLIYRANRLVDGVPSKFSGSGSGTDYTLTISSLQPEDFATYYCLQSDEFPLTFGQGTKLEIKR
Take B13: the binding result in test [1] is given as “binds”.

In general, IC50 refers to the concentration at which inhibition is half-maximal.
